Where two headings read alike, the source gives them in different places.
Assay: In vivo pharmacokinetic (PK) studies in rats
Parameters: species or system Sprague-Dawley rats
Details: for AUC(0-inf): read-out: Rat PK AUC Total; for level at time molar at 24 h: read-out: Rat PK C24
Protocol: […] Blood samples were collected via jugular vein at different time points out to 72 hours. Blood samples were allowed to coagulate at room temperature (30-60 m) and then centrifuged (1500-2000) at 4° C. to obtain serum. After centrifugation serum samples were transferred to 96 well plates and stored at −80° C. until bioanalysis. Relaxin concentrations were measured from serum by ELISA.
Relaxin concentration-time profiles from individual animals were used for analysis. Pharmacokinetic parameters were calculated by non-compartmental methods using Phoenix WinNonlin (version 6.4) or Kinetica (version 5). Mean pharmacokinetic parameters Cmax, AUCinf, C24 and half-life were reported (Table 4). Table 4. In vivo PK data (abbreviations as in Table 3).

[1] = rat, male Sprague-Dawley rats, single SC dose 1.0 mg/kg, serum ELISA
[2] = rats, SC dose 1.0 mg/kg, adjusted from 0.3 mpk

| SMILES | AUC(0-inf) [1] | level at time molar at 24 h [1] | Rat PK AUC Total [2] | level at time molar at 24 h [2] |
| --- | --- | --- | --- | --- |
| CC[C@H](C)[C@@H]1NC(=O)[C@H](C)NC(=O)[C@H]([C@@H](C)CC)NC(=O)[C@H](CCC(N)=O)NC(=O)[C@H](C)NC(=O)[C@H](CCCNC(=N)N)NC(=O)[C@H](C(C)C)NC(=O)[C@H](CC(C)C)NC(=O)[C@H](CCC(=O)O)NC(=O)[C@H](CCCNC(=N)N)NC(=O)CNC(=O)[C@@H](NC(=O)[C@H](CC(C)C)NC(=O)[C@H](CCCCN)NC(=O)[C@@H](NC(=O)[C@@H](NC(=O)[C@H](CCC(=O)O)NC(=O)[C@H](CCC(=O)O)NC(=O)[C@H](CCSC)NC(=O)[C@H](Cc2c[nH]c3ccccc23)NC(=O)[C@H](CO)NC(=O)[C@H](C)N)C(C)C)[C@@H](C)CC)CSSC[C@@H]2NC(=O)[C@@H](NC(=O)[C@H](CCCCN)NC(=O)[C@H](CC(N)=O)NC(=O)[C@H](C)NC(=O)[C@H](CC(C)C)NC(=O)[C@H](C)NC(=O)[C@H](CO)NC(=O)[C@H](Cc3ccc(O)cc3)NC(=O)[C@H](CC(C)C)NC(=O)[C@@H](N)Cc3ccc(C(C)=NOCCNC(=O)CNC(=O)CNC(=O)CNC(=O)[C@H](CCC(=O)O)NC(=O)[C@H](CCC(=O)O)NC(=O)[C@H](CCC(=O)O)NC(=O)CC[C@H](NC(=O)CCCCCCCCCCCCC(=O)O)C(=O)O)cc3)CSSC[C@H](NC(=O)CNC(=O)[C@H](C(C)C)NC(=O)[C@H](Cc3c[nH]cn3)NC2=O)C(=O)N[C@@H]([C@@H](C)O)C(=O)N[C@@H](CCCCN)C(=O)N[C@@H](CCCNC(=N)N)C(=O)N[C@@H](CO)C(=O)N[C@@H](CC(C)C)C(=O)N[C@@H](C)C(=O)N[C@@H](CCCNC(=N)N)C(=O)N[C@@H](Cc2ccccc2)C(=O)N[C@H](C(=O)O)CSSC[C@@H](C(=O)NCC(=O)N[C@@H](CCSC)C(=O)N[C@@H](CO)C(=O)N[C@H](C(=O)N[C@@H](Cc2c[nH]c3ccccc23)C(=O)N[C@@H](CO)C(=O)O)[C@@H](C)O)NC1=O [AQ1-GGGEEE-Glu^γ-C13-COOH] | 0.866 µM·h | 0.18 nM | – | – |
| CC[C@H](C)[C@@H]1NC(=O)[C@H](C)NC(=O)[C@H]([C@@H](C)CC)NC(=O)[C@H](CCC(N)=O)NC(=O)[C@H](C)NC(=O)[C@H](CCCNC(=N)N)NC(=O)[C@H](C(C)C)NC(=O)[C@H](CC(C)C)NC(=O)[C@H](CCC(=O)O)NC(=O)[C@H](CCCNC(=N)N)NC(=O)CNC(=O)[C@@H](NC(=O)[C@H](CC(C)C)NC(=O)[C@H](CCCCN)NC(=O)[C@@H](NC(=O)[C@@H](NC(=O)[C@H](CCC(=O)O)NC(=O)[C@H](CCC(=O)O)NC(=O)[C@H](CCSC)NC(=O)[C@H](Cc2c[nH]c3ccccc23)NC(=O)[C@H](CO)NC(=O)[C@H](C)N)C(C)C)[C@@H](C)CC)CSSC[C@@H]2NC(=O)[C@@H](NC(=O)[C@H](CCCCN)NC(=O)[C@H](CC(N)=O)NC(=O)[C@H](C)NC(=O)[C@H](CC(C)C)NC(=O)[C@H](C)NC(=O)[C@H](CO)NC(=O)[C@H](Cc3ccc(O)cc3)NC(=O)[C@H](CC(C)C)NC(=O)[C@@H](N)Cc3ccc(C(C)=NOCCNC(=O)CNC(=O)CNC(=O)CNC(=O)CNC(=O)[C@H](CO)NC(=O)CC[C@H](NC(=O)CCCCCCCCCCCCCCC(=O)O)C(=O)O)cc3)CSSC[C@H](NC(=O)CNC(=O)[C@H](C(C)C)NC(=O)[C@H](Cc3c[nH]cn3)NC2=O)C(=O)N[C@@H]([C@@H](C)O)C(=O)N[C@@H](CCCCN)C(=O)N[C@@H](CCCNC(=N)N)C(=O)N[C@@H](CO)C(=O)N[C@@H](CC(C)C)C(=O)N[C@@H](C)C(=O)N[C@@H](CCCNC(=N)N)C(=O)N[C@@H](Cc2ccccc2)C(=O)N[C@H](C(=O)O)CSSC[C@@H](C(=O)NCC(=O)N[C@@H](CCSC)C(=O)N[C@@H](CO)C(=O)N[C@H](C(=O)N[C@@H](Cc2c[nH]c3ccccc23)C(=O)N[C@@H](CO)C(=O)O)[C@@H](C)O)NC1=O [AQ1-GGGGS-Glu^γ-C15-COOH] | – | – | 5.526 µM·h | 44 nM |
| CC[C@H](C)[C@@H]1NC(=O)[C@H](C)NC(=O)[C@H]([C@@H](C)CC)NC(=O)[C@H](CCC(N)=O)NC(=O)[C@H](C)NC(=O)[C@H](CCCNC(=N)N)NC(=O)[C@H](C(C)C)NC(=O)[C@H](CC(C)C)NC(=O)[C@H](CCC(=O)O)NC(=O)[C@H](CCCNC(=N)N)NC(=O)CNC(=O)[C@@H](NC(=O)[C@H](CC(C)C)NC(=O)[C@H](CCCCN)NC(=O)[C@@H](NC(=O)[C@@H](NC(=O)[C@H](CCC(=O)O)NC(=O)[C@H](CCC(=O)O)NC(=O)[C@H](CCSC)NC(=O)[C@H](Cc2c[nH]c3ccccc23)NC(=O)[C@H](CO)NC(=O)[C@H](C)N)C(C)C)[C@@H](C)CC)CSSC[C@@H]2NC(=O)[C@@H](NC(=O)[C@H](CCCCN)NC(=O)[C@H](CC(N)=O)NC(=O)[C@H](C)NC(=O)[C@H](CC(C)C)NC(=O)[C@H](C)NC(=O)[C@H](CO)NC(=O)[C@H](Cc3ccc(O)cc3)NC(=O)[C@H](CC(C)C)NC(=O)[C@@H](N)Cc3ccc(C(C)=NOCCNC(=O)CNC(=O)CNC(=O)CNC(=O)[C@H](CCCCN)NC(=O)[C@H](CCCCN)NC(=O)[C@H](CCCCN)NC(=O)CC[C@H](NC(=O)CCCCCCCCCCCCC(=O)O)C(=O)O)cc3)CSSC[C@H](NC(=O)CNC(=O)[C@H](C(C)C)NC(=O)[C@H](Cc3c[nH]cn3)NC2=O)C(=O)N[C@@H]([C@@H](C)O)C(=O)N[C@@H](CCCCN)C(=O)N[C@@H](CCCNC(=N)N)C(=O)N[C@@H](CO)C(=O)N[C@@H](CC(C)C)C(=O)N[C@@H](C)C(=O)N[C@@H](CCCNC(=N)N)C(=O)N[C@@H](Cc2ccccc2)C(=O)N[C@H](C(=O)O)CSSC[C@@H](C(=O)NCC(=O)N[C@@H](CCSC)C(=O)N[C@@H](CO)C(=O)N[C@H](C(=O)N[C@@H](Cc2c[nH]c3ccccc23)C(=O)N[C@@H](CO)C(=O)O)[C@@H](C)O)NC1=O [AQ1-GGGKKK-Glu^γ-C13-COOH] | 0.231 µM·h | 0.1 nM | – | – |
| CC[C@H](C)[C@@H]1NC(=O)[C@H](C)NC(=O)[C@H]([C@@H](C)CC)NC(=O)[C@H](CCC(N)=O)NC(=O)[C@H](C)NC(=O)[C@H](CCCNC(=N)N)NC(=O)[C@H](C(C)C)NC(=O)[C@H](CC(C)C)NC(=O)[C@H](CCC(=O)O)NC(=O)[C@H](CCCNC(=N)N)NC(=O)CNC(=O)[C@@H](NC(=O)[C@H](CC(C)C)NC(=O)[C@H](CCCCN)NC(=O)[C@@H](NC(=O)[C@@H](NC(=O)[C@H](CCC(=O)O)NC(=O)[C@H](CCC(=O)O)NC(=O)[C@H](CCSC)NC(=O)[C@H](Cc2c[nH]c3ccccc23)NC(=O)[C@H](CO)NC(=O)[C@H](C)N)C(C)C)[C@@H](C)CC)CSSC[C@@H]2NC(=O)[C@@H](NC(=O)[C@H](CCCCN)NC(=O)[C@H](CC(N)=O)NC(=O)[C@H](C)NC(=O)[C@H](CC(C)C)NC(=O)[C@H](C)NC(=O)[C@H](CO)NC(=O)[C@H](Cc3ccc(O)cc3)NC(=O)[C@H](CC(C)C)NC(=O)[C@@H](N)Cc3ccc(C(C)=NOCCNC(=O)[C@H](CCCCN)NC(=O)[C@H](CCCCN)NC(=O)CC[C@H](NC(=O)CCCCCCCCCCCCCCC(=O)O)C(=O)O)cc3)CSSC[C@H](NC(=O)CNC(=O)[C@H](C(C)C)NC(=O)[C@H](Cc3c[nH]cn3)NC2=O)C(=O)N[C@@H]([C@@H](C)O)C(=O)N[C@@H](CCCCN)C(=O)N[C@@H](CCCNC(=N)N)C(=O)N[C@@H](CO)C(=O)N[C@@H](CC(C)C)C(=O)N[C@@H](C)C(=O)N[C@@H](CCCNC(=N)N)C(=O)N[C@@H](Cc2ccccc2)C(=O)N[C@H](C(=O)O)CSSC[C@@H](C(=O)NCC(=O)N[C@@H](CCSC)C(=O)N[C@@H](CO)C(=O)N[C@H](C(=O)N[C@@H](Cc2c[nH]c3ccccc23)C(=O)N[C@@H](CO)C(=O)O)[C@@H](C)O)NC1=O [AQ1-KK-Glu^γ-C15-COOH] | 0.82 µM·h | 8.8 nM | – | – |
| CC[C@H](C)[C@@H]1NC(=O)[C@H](C)NC(=O)[C@H]([C@@H](C)CC)NC(=O)[C@H](CCC(N)=O)NC(=O)[C@H](C)NC(=O)[C@H](CCCNC(=N)N)NC(=O)[C@H](C(C)C)NC(=O)[C@H](CC(C)C)NC(=O)[C@H](CCC(=O)O)NC(=O)[C@H](CCCNC(=N)N)NC(=O)CNC(=O)[C@@H](NC(=O)[C@H](CC(C)C)NC(=O)[C@H](CCCCN)NC(=O)[C@@H](NC(=O)[C@@H](NC(=O)[C@H](CCC(=O)O)NC(=O)[C@H](CCC(=O)O)NC(=O)[C@H](CCSC)NC(=O)[C@H](Cc2c[nH]c3ccccc23)NC(=O)[C@H](CO)NC(=O)[C@H](C)N)C(C)C)[C@@H](C)CC)CSSC[C@@H]2NC(=O)[C@@H](NC(=O)[C@H](CCCCN)NC(=O)[C@H](CC(N)=O)NC(=O)[C@H](C)NC(=O)[C@H](CC(C)C)NC(=O)[C@H](C)NC(=O)[C@H](CO)NC(=O)[C@H](Cc3ccc(O)cc3)NC(=O)[C@H](CC(C)C)NC(=O)[C@@H](N)Cc3ccc(C(C)=NOCCNC(=O)[C@H](CCCCN)NC(=O)[C@H](CCCCN)NC(=O)[C@H](CCCCN)NC(=O)[C@H](CCCCN)NC(=O)[C@H](CCCCN)NC(=O)[C@H](CCCCN)NC(=O)CC[C@H](NC(=O)CCCCCCCCCCCCC(=O)O)C(=O)O)cc3)CSSC[C@H](NC(=O)CNC(=O)[C@H](C(C)C)NC(=O)[C@H](Cc3c[nH]cn3)NC2=O)C(=O)N[C@@H]([C@@H](C)O)C(=O)N[C@@H](CCCCN)C(=O)N[C@@H](CCCNC(=N)N)C(=O)N[C@@H](CO)C(=O)N[C@@H](CC(C)C)C(=O)N[C@@H](C)C(=O)N[C@@H](CCCNC(=N)N)C(=O)N[C@@H](Cc2ccccc2)C(=O)N[C@H](C(=O)O)CSSC[C@@H](C(=O)NCC(=O)N[C@@H](CCSC)C(=O)N[C@@H](CO)C(=O)N[C@H](C(=O)N[C@@H](Cc2c[nH]c3ccccc23)C(=O)N[C@@H](CO)C(=O)O)[C@@H](C)O)NC1=O [AQ1-KKKKKK-Glu^γ-C13-COOH] | 0.038 µM·h | 0.05 nM | – | – |

Reference: US12097241B2, “Methods of treating kidney failure, and/or improving or stablizing renal function using modified relaxin polypeptides” (BRISTOL-MYERS SQUIBB COMPANY, priority 2017, dated 2024)
